Drawing on the Immune Epitope Database (IEDB), this text covers Kd for six sequences.

Bounds are passed on as bounds.

Assay [1] deals with HLA-A*02:01. The assay can be described thus: IEDB peptide-MHC binding, purified MHC/competitive/fluorescence; filed as Kd, often an IC50 or EC50 that approximates it; ≥ and ≤ were set here for values at or beyond the usual limits of such assays.
The target in assay [2] is HLA-B*51:01. The description is as above. As to conditions: source organism: Salmonella enterica subsp. enterica serovar Typhi.
Assay [3] addresses HLA-A*02:03. The description is as above. The conditions noted are these: source organism: Salmonella enterica subsp. enterica serovar Typhi.
Assay [4] addresses HLA-B*15:01. The assay is described as above.
Assay [5] has as its target HLA-B*39:01. The assay is described as above. As to conditions: source organism: Salmonella enterica subsp. enterica serovar Typhi.
Assay [6] addresses HLA-B*18:01. The assay is described as above. The conditions noted are these: source organism: Salmonella enterica subsp. enterica serovar Typhi.
Assay [7] has as its target HLA-A*69:01. The assay is described as above. As to conditions: source organism: Salmonella enterica subsp. enterica serovar Typhi.
Assay [8] deals with HLA-A*68:02. Described as above. As to conditions: source organism: Salmonella enterica subsp. enterica serovar Typhi.
Assay [9] deals with HLA-B*57:01. The assay is described as above. As to conditions: source organism: Salmonella enterica subsp. enterica serovar Typhi.
In assay [10] the target is HLA-B*27:03. The description is as above. The conditions noted are these: source organism: Salmonella enterica subsp. enterica serovar Typhi.
The target in assay [11] is HLA-A*02:11. The assay is described as above. The conditions noted are these: source organism: Salmonella enterica subsp. enterica serovar Typhi.
Assay [12] concerns the target HLA-A*02:19. The description is as above. The conditions noted are these: source organism: Salmonella enterica subsp. enterica serovar Typhi.
The target of assay [13] is HLA-B*46:01. The assay is described as above. As to conditions: source organism: Salmonella enterica subsp. enterica serovar Typhi.
The target in assay [14] is HLA-A*26:01. The description is as above. As to conditions: source organism: Salmonella enterica subsp. enterica serovar Typhi.
For assay [15], the target named is HLA-A*02:12. The description is as above. As to conditions: source organism: Salmonella enterica subsp. enterica serovar Typhi.
Assay [16] has as its target HLA-A*02:16. Described as above.
Assay [17] concerns the target HLA-A*03:01. The assay is described as above. As to conditions: source organism: Salmonella enterica subsp. enterica serovar Typhi.
The target of assay [18] is HLA-A*02:01. Nature of the assay: IEDB peptide-MHC binding, purified MHC/direct/fluorescence; filed as Kd, often an IC50 or EC50 that approximates it; ≥ and ≤ were set here for values at or beyond the usual limits of such assays.
Assay [19] concerns the target HLA-A*69:01. Described as above.
In assay [20] the target is HLA-C*05:01. The description is as above.
Assay [21] has as its target HLA-A*02:12. The description is as above. As to conditions: source organism: Vibrio vulnificus CMCP6.
Assay [22] concerns the target HLA-A*02:16. The description is as above. The conditions noted are these: source organism: Vibrio vulnificus CMCP6.
Assay [23] addresses HLA-A*02:50. Nature of the assay: IEDB peptide-MHC binding, purified MHC/competitive/fluorescence; filed as Kd, often an IC50 or EC50 that approximates it; ≥ and ≤ were set here for values at or beyond the usual limits of such assays.
In assay [24] the target is HLA-B*27:05. The assay can be described thus: IEDB peptide-MHC binding, purified MHC/direct/fluorescence; filed as Kd, often an IC50 or EC50 that approximates it; ≥ and ≤ were set here for values at or beyond the usual limits of such assays.
Assay [25] has as its target HLA-B*15:01. Described as above. As to conditions: source organism: Serratia marcescens.
Assay [26] addresses HLA-A*31:01. Described as above. As to conditions: source organism: Serratia marcescens.
Assay [27] concerns the target HLA-B*08:01. The assay is described as above. As to conditions: source organism: Serratia marcescens.
Assay [28] has as its target HLA-A*01:01. The description is as above. As to conditions: source organism: Serratia marcescens.
Assay [29] deals with HLA-B*40:01. The description is as above.
Assay [30] has as its target HLA-B*07:02. Described as above. The conditions noted are these: source organism: Serratia marcescens.
Assay [31] deals with HLA-A*26:01. The description is as above. As to conditions: source organism: Serratia marcescens.
Assay [32] concerns the target HLA-A*03:01. The description is as above. As to conditions: source organism: Serratia marcescens.
The target of assay [33] is HLA-B*58:01. Described as above. The conditions noted are these: source organism: Serratia marcescens.
Assay [34] concerns the target HLA-C*03:03. Described as above. The conditions noted are these: source organism: Escherichia coli O139:H28 str. E24377A.
For assay [35], the target named is HLA-B*35:01. The assay can be described thus: IEDB peptide-MHC binding, purified MHC/competitive/fluorescence; filed as Kd, often an IC50 or EC50 that approximates it; ≥ and ≤ were set here for values at or beyond the usual limits of such assays. As to conditions: source organism: Escherichia coli O139:H28 str. E24377A.
In assay [36] the target is HLA-B*08:01. The assay is described as above. The conditions noted are these: source organism: Escherichia coli O139:H28 str. E24377A.
Assay [37] deals with HLA-B*58:01. The assay is described as above. As to conditions: source organism: Escherichia coli O139:H28 str. E24377A.
Assay [38] has as its target HLA-B*45:06. The description is as above. As to conditions: source organism: Pan troglodytes.
For assay [39], the target named is HLA-B*27:20. The assay is described as above. The conditions noted are these: source organism: Pan troglodytes.
Assay [40] has as its target HLA-B*83:01. The description is as above. The conditions noted are these: source organism: Pan troglodytes.
For assay [41], the target named is HLA-B*15:42. The description is as above. As to conditions: source organism: Pan troglodytes.
[42] abbreviates: source organism: Salmonella enterica subsp. enterica serovar Typhi.
Setting [43] is: source organism: Vibrio vulnificus.
[44] abbreviates: source organism: Vibrio vulnificus YJ016.
Setting [45] is: source organism: Serratia marcescens.
Setting [46] is: source organism: Escherichia coli O139:H28 str. E24377A.
Where [47] appears, read: source organism: Francisella tularensis subsp. holarctica OSU18.

A word on the Kd: it is the concentration at which binding is half-saturated. The low end stands for tighter binding, the high end for weaker binding. In the case of KTVRYWHRF, the Kd in [1] (setting [42]), in assay [2], in assay [3], in assay [4] (setting [42]), in assay [5] and in [6] was no less than 20 µM each time. The Kd in [7] is no less than 20 µM; in assay [8] it was no less than 20 µM; in [9], 0.0403 µM; in [10], no less than 20 µM; in [11], no less than 20 µM; in assay [12], no less than 20 µM. Moreover, the Kd in assay [13], in assay [14], in assay [15], in assay [16] (setting [42]) and in assay [17] was no less than 20 µM each time.
On to MSDWGHITV, for which the Kd is 0.276 µM in [18] (setting [43]); no more than 0.001 µM in assay [19] (setting [43]); no more than 0.001 µM in assay [20] (setting [44]); 0.056 µM in assay [21]; 0.029 µM in assay [22]; 0.0098 µM in assay [23] (setting [44]).
As to LIPDGDGEV, the Kd in [18] (setting [45]), in [24] (setting [45]), in assay [25], in assay [26], in assay [19] (setting [45]) and in [27] was no less than 20 µM in each case. Also, the Kd in [28], in assay [29] (setting [45]), in assay [30], in assay [31], in assay [32] and in assay [33] was no less than 20 µM throughout. Besides, in assay [23] (setting [45]), the Kd was found to be 0.0017 µM.
With YALATQVEF, the dissociation constant Kd in assay [20] (setting [46]) is 2.65 µM; in assay [34] it was no more than 0.001 µM; in assay [4] (setting [46]), 0.0413 µM; in assay [35], no more than 0.0001 µM; in [36] it was 3.72 µM; in assay [37], 0.0045 µM.
FGLLPEHYV: the dissociation constant (Kd) in [1] (setting [47]) is 0.12 µM; in assay [16] (setting [47]) it was 0.0601 µM.
Take RRHWGGNVL: the dissociation constant Kd in assay [24] (source organism: Homo sapiens) is 2.3 µM; in assay [29] (source organism: Homo sapiens), no less than 43 µM; in assay [38], no less than 5 µM; in assay [39], 0.0002 µM; in [40], no less than 5 µM; in [41], no less than 5 µM.
